Positions of bridges follow the written chain, without caps; N, C: chain ends. No end group written: not given here.
Molecular target: T1, soluble EGFR (amino acids 1-621) (UniProt P00533 25-645)
T1 construct: range 1-621; Amine-coupled to a CM-5 chip on flowcell 3; also called soluble ErbB1; ErbB-1
Assay: BIAcore 3000, receptor amine-coupled to CM-5 chip, peptide injected
Method: Biosensor analyses were performed using a BIAcore™ 3000. A CM-5 (research grade) sensor chip was immobilized with soluble EGFR (amino acids 1-501), soluble EGFR (amino acids 1-621) and soluble ErbB2 (amino acids 1-509) on flowcells 2, 3 and 4, respectively. Immobilizations were performed using amine coupling chemistry in 10 mM Sodium Acetate at pH 4.2. Varying concentrations (1.25 μM, 2.5 μM, 5 μM and 10 μM) of peptides were injected (30 μl) over the sensor surfaces in HBS running buffer (10 mM HEPES, 3.4 mM EDTA, 0.15M NaCl, 0.005% Tween 20, pH 7.4) at a flow rate of 5 μl/min. The surfaces were then regenerated by injecting 10 μl of 10 mM NaOH at a flow rate of 20 μl/min. The resulting sensor curves were subtracted against the blank channel (Flowcell 1) to yield the specific response.

B1: Human NRG2 (1-32) (peptide)
peptide: GHARKCNETAKSYCVNGGVCYYIEGINQLSCK-OH
modifications: disulfide 14-20, 6-31; N-terminus assumed
SMILES: CC[C@H](C)[C@@H]1NC(=O)CNC(=O)[C@H](CCC(=O)O)NC(=O)[C@H]([C@@H](C)CC)NC(=O)[C@H](Cc2ccc(O)cc2)NC(=O)[C@H](Cc2ccc(O)cc2)NC(=O)[C@@H]2CSSC[C@H](NC(=O)[C@H](Cc3ccc(O)cc3)NC(=O)[C@H](CO)NC(=O)[C@H](CCCCN)NC(=O)[C@H](C)NC(=O)[C@H]([C@@H](C)O)NC(=O)[C@H](CCC(=O)O)NC(=O)[C@H](CC(N)=O)NC(=O)[C@@H](NC(=O)[C@H](CCCCN)NC(=O)[C@H](CCCNC(=N)N)NC(=O)[C@H](C)NC(=O)[C@H](Cc3c[nH]cn3)NC(=O)CN)CSSC[C@@H](C(=O)N[C@@H](CCCCN)C(=O)O)NC(=O)[C@H](CO)NC(=O)[C@H](CC(C)C)NC(=O)[C@H](CCC(N)=O)NC(=O)[C@H](CC(N)=O)NC1=O)C(=O)N[C@@H](C(C)C)C(=O)N[C@@H](CC(N)=O)C(=O)NCC(=O)NCC(=O)N[C@@H](C(C)C)C(=O)N2
notes: V8 digestion and mass spectrometry indicate C1-C4 and C2-C3 disulfide bridges; also called hNRG2 (1-32); hNRG2(1-32)
B1: no binding (tested: up to 10 uM).

Source: patent US20090131308A1 (AGOS BIOTECH, published 2009)
